# Data taken from the nanobody polyreactivity screen of Harvey et al. (2022).
# Assay: yeast display, Sf9 membrane polyspecificity reagent, FACS + sequencing; frameworks hold sequencing errors
# Outline: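 Nanobodies from a synthetic yeast display library (Saccharomyces cerevisiae BJ5465), induced 36–48 hours with galactose, were stained 1 hour at 4 °C with 10% biotinylated, detergent-solubilized Sf9 membrane reagent, enriched on streptavidin microbeads, then FACS-sorted. Anti-HA (expression) and streptavidin (reagent binding) fluorescence set low and high (top ~1%) gates. Polyreactivity labels come from the gate of origin. Genes were colony-PCR amplified, MiSeq 2 × 250 sequenced and filtered by CDR length.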
row,Sequence,polyreactivity (PSR sort gate)
1,QVQLVESGGGLVQAGGSLRLSCAASGSTFEEYAMGWYRKAPGKERELVAGITWGGGSTYYADSVKGRFTISRDNAKNTVYLQMNSLKPEDTAVYYCVFAFEYYYWGQGTQVTVSS,low polyreactivity
2,QVQLVESGGGLVQAGGSLRLSCAASGSTFEFNDMGWYIQAPGKERELVASIRHSDGSTYYADSVKGRFTISRDNAKNTVYLQMNSLKPEDTAVYYCNKAFQWSGGQVSYDYWGQATQVTVSS,low polyreactivity
3,QVQLVESGGGLVQAGGSLRLSCAASGSTFEGYAMGWYRQAPGKEMELVAAISSSGGTTNYADSVKGRFTISRDNAKNTVYLQMNSLKPEDTAVYYCAARKYAKYFYHYDYWGQGTQVTVSS,low polyreactivity
4,QVQLVESGGGLVQAGGSLRLSCAASGSTFENNAMGWYRQAPGKERELVASSTNYADSVKGRFTISRDNAKNTVYLQMNSLKPEDTAVYYCNLDTNSSYEFNSWGQGTQVTVSS,low polyreactivity
5,QVQLVESGGGLVQAGGSLRLSCAASGSTFENNVMAWYRQAPGKERELVATITWGDGSTSYADSVKGRFTISRDNAKNTVYLQMNSLKPEDTAVYYCAADSAENVYRGYYWGQGTQVTVSS,low polyreactivity
6,QVQLVESGGGLVQAGGSLRLSCAASGSTFESNAMGWYRQAPGKERELVASISGSGGSTFYADSVKGRFTISRDNAKNTVYLQMNSLKPEDTAVYYCAAYKEPYYEEYGYWGQGTQVTVSS,low polyreactivity
7,QVQLVESGGGLVQAGGSLRLSCAASGSTFESNFMGWYRQAPGKEWELVAAITWTGGSTYYADSVKGRFTISRDNAKNNVYLQMNSLKPVDTAVYYCATYDPGPLLGSDYWGHGTQVTVSS,low polyreactivity
8,QVQLVESGGGLVQAGGSLRLSCAASGSTFESYAMGWYRQAPGKERELVAAISRRGGRTYYADSVKGRFTISRDNAKNTVYLQMYSLKPEDTAVYYCATDSSYYGSDDYWGQGTQVNVSS,high polyreactivity
9,QVQLVESGGGLVQAGGSLRLSCAASGSTFETNAMGWYRQAPGKERELVAAISVSGGDTYYADSVKGRFTISRDNAKNTVYLQMNSLKPEDTAVYYCAAAERGYIFPDRMRYDYWGQGTQVTVSS,low polyreactivity
10,QVQLVESGGGLVQAGGSLRLSCAASGSTFETNGMGWYRQAPGKERELVAAITSGGSTYYADSVKGRFTISRDNAKNTVYLQMNSLKPEDTAVYYCAAVDGGWAYDPYDYWGQGTQVTVSS,low polyreactivity
11,QVQLVESGGGLVQAGGSLRLSCAASGSTFEVNAMGWYRQAPGKERELVAAISSSAGDTYYADSVKGRFTISRDNAKNTVYLQMNSLKPEDTAVYYCAAKGFPRSGYPYQAQHMYYWGQGTQVTVSS,low polyreactivity
12,QVQLVESGGGLVQAGGSLRLSCAASGSTFEYNAMGWYRQAPGKERELVASSTNYADSVKGRFTISRDNAKNTVYLQMNSLKPEDTAVYYFAREQGVNRNHDYWGQGTQVTVSS,low polyreactivity
13,QVQLVESGGGLVQAGGSLRLSCAASGSTFEYNAMGWYRQAPGKERELVASSTNYADSVKGRFTISRDNAKNTVYLQMNSLKPEVTAVYYCAAYQDYVYSESLFSVSARMYYWGQGTQVTVSS,low polyreactivity
14,QVQLVESGGGLVQAGGSLRLSCAASGSTFEYYAMGWYRQAPGKERELLATISIDGRTNYADSVKGRFTISRDNAKNTVYLQLYSVKPEDTAVYYCGARPYWRHRYDYWGQGTQVTVSS,low polyreactivity
15,QVQLVESGGGLVQAGGSLRLSCAASGSTFEYYAMGWYRQAPGKERELVAAITTSGGITYYADSVKGRFTISRDNAKNTVYLQMNSLKPEDTAVYYCNADAVPLPTLVTYLYDYWGQGTQVTVSS,low polyreactivity
16,QVQLVESGGGLVQAGGSLRLSCAASGSTFEYYAMGWYRQAPGKERELVATISIDGRTNYADSVKGRFTISRDNAKNTVYLQMNSLKPEDTAVYYCAADTNWSPGYIMYYRSDYWGQGTQVTVSS,low polyreactivity
17,QVQLVESGGGLVQAGGSLRLSCAASGSTFEYYAMGWYRQAPGKERELVAVITNGGSTNYADSVKGRFTISRDNAKNTVYLQKNSLKPEDTAVYYCNAERRVFYYFDYDFWGLGTQVTVSS,low polyreactivity
18,QVQLVESGGGLVQAGGSLRLSCAASGSTFFDYAMGWYRQAPGKVRELVAVISDGGTTTYADSVKGRFTISRDNAKNTVYLQMNSLKPEDTAVYYCAAENQDGLLVILGGYGYWGQGTQVTVSS,low polyreactivity
19,QVQLVESGGGLVQAGGSLRLSCAASGSTFFFNAMGWYRQAPGKERELVAGISSSGGSTHYADSVKGRFTISRDNAKNTVYLQMNSLKPEDTAVYYCNAQQYLPSEGDYWGQGTQVTVSS,low polyreactivity
20,QVQLVESGGGLVQAGGSLRLSCAASGSTFFGNTMGWYRQAPGKERELVATITRRGGSTYYADSVKGRFTMSRDNAKNTVYLQMNSLKPEDTAVYYCANRGPYTKYDYWGQGTQVTVSS,low polyreactivity
21,QVQLVESGGGLVQAGGSLRLSCAASGSTFFGYDMGWYRQAPGTERELVATINSGGSTYYADSVKGRFTISRDNAKYTVYLQMNSLKPEDTAVYYCAARPSYLYPFDRTGEYDYWGQGTQVTVSS,high polyreactivity

row,Sequence,polyreactivity (PSR sort gate)
1,QVQLVESGGGLVQAGGSLRLSCAASGSTFFHYAMGWYRQAPGKERELVAAISTGGTTYYADSVKGRFTISRDNAKNTVYLQMNSLKPEDSAVYYCAAEAYGLSGLYYYWGQCTQVTVSS,high polyreactivity
2,QVQLVESGGGLVQAGGSLRLSCAASGSTFFINAMGWYRQGPGKERELVASISYSGGSTYYAHSVKGRFTISRDNAKNTVYLQLNSLKPEDTAVYYCNADVRVFLHYYKYNYWGQGTQVTVSS,low polyreactivity
3,QVQLVESGGGLVQAGGSLRLSCAASGSTFFLNAMGWYRQAPGKERELVAAISYSDSGTNYADSVKGRFTISRDNAKNTVYLQMNSLKPEDTAVYYCATAVRPWYVTSGNYWGQGTQVTVSS,low polyreactivity
4,QVQLVESGGGLVQAGGSLRLSCAASGSTFFLYAMGWYRQAPGKERELVAAISSGGSTNYADSVKGRFTISRDNAKNTVYLQMNSLKPEDTAVYYCAADAVRSHDYWGQGTQVTVSS,low polyreactivity
5,QVQLVESGGGLVQAGGSLRLSCAASGSTFFLYAMGWYRQAPGKERELVAAITWRSGRTYYADSVKGRFTISRDNAKNTVYLQMNSLKPEDTAVYYCAADYVLGEVVRYDYWGQGTQVTVSS,high polyreactivity
6,QVQLVESGGGLVQAGGSLRLSCAASGSTFFPYAMGWYRQAPGKERELVAAITSGGRTKYADSVKGRFTISRDNAMNTVYLQMNSLKPEDTAVYYCAARGLIKEYGGPYRRFGYWGQGTQVTVSS,high polyreactivity
7,QVQLVESGGGLVQAGGSLRLSCAASGSTFFPYAMGWYRQAPGKERELVAGISSDGGTSYADSVKGRFTISRDNAKNTVYLQMNSLKPEDTAVYYCAALQADRGGWYDYWGQGTQVTVSS,low polyreactivity
8,QVQLVESGGGLVQAGGSLRLSCAASGSTFFPYAMGWYRQAPGKERELVATINYSGGGTYYADSVKGRFTISRDNAKNTVYLQMNSLKPEDTAVYYCAKTLARFDRGYYWGQGTQVTVSS,low polyreactivity
9,QVQLVESGGGLVQAGGSLRLSCAASGSTFFSYAMGWYRQAPGKEREFVAAISWIDDGTYYADSVKGRFTISRDNAKNTVYLQMNSLKPEDTAVYYCAADIGAYRTWDYEYWGQGTQVTVSS,low polyreactivity
10,QVQLVESGGGLVQAGGSLRLSCAASGSTFFTNAMAWYRQSPGKERELVASISFSGGRTYYADSVKGRFTISRDNAKNTVYLQMNSLKPEDTAVYYCAARRYRYTRYDYWGQGTQVTVSS,high polyreactivity
11,QVQLVESGGGLVQAGGSLRLSCAASGSTFFTNAMGWYRQAPGKERELVAAITINDGSTFYADSVKGRFTITRDNAKNTVYLQMNSLKPEDTAVYYCNADGVDLYDYWGQGTQVTVSS,low polyreactivity
12,QVQLVESGGGLVQAGGSLRLSCAASGSTFFTNVMGWYRQAPGKERELVAVIRWRGSDTYYADSVKGRFTISRDNAKNTVYLQMNSLKPEDTAVYYSNAKESFYPTTGEQGYSYDYWGQGTQVTVSS,low polyreactivity
13,QVQLVESGGGLVQAGGSLRLSCAASGSTFFTYTMGWYRQAPGKERELVARITSSGGSTYYADSVKGRFTISRDNAKNTVYLQMNSLKPEDTAVYYCNARYYSHPTYDYWGQGTQVTVSS,high polyreactivity
14,QVQLVESGGGLVQAGGSLRLSCAASGSTFFVANAMGWYRQSPGKERELVAAISPSGGSTYYADSVKGRFTISRDNAKNTVYLQMNSLKPEDTAVYYCATSVRRFTRRYDYWGQGTQVTVSS,high polyreactivity
15,QVQLVESGGGLVQAGGSLRLSCAASGSTFFWYAMGRYRQAPGKERELVAAISKTGGSTYYADSVKGRFTISRDNAKNTFYLQMNSLKPEDTAVYYCNAVPYASKAARSFDYWGQGTQVTVSS,low polyreactivity
16,QVQLVESGGGLVQAGGSLRLSCAASGSTFFWYGMGWYRQAPGKERELVAAISSDGSTYYADSVKGRFTISRDNAKNTVYLQMNSLKPEDTAVYYCAAQIPWYIYPGSYTMDYWGQGTQVTVSS,low polyreactivity
17,QVQLVESGGGLVQAGGSLRLSCAASGSTFFYNAMGWYRQAPGKERELVAAMSLSGGSITYYADSVKGRFTISRDNANNTVYLQMNSLKPEDTAVYYCAADSQATSYGLDYWGQGTQVTVSS,low polyreactivity
18,QVQLVESGGGLVQAGGSLRLSCAASGSTFFYNAMGWYRQAPGKERELVASINDRAGRTYYADSVKGRFTISRDNAKNTVYLQMNSLKPEDTAVYYCAAEPWYKFDYDYWGQGTQVTVSS,low polyreactivity
19,QVQLVESGGGLVQAGGSLRLSCAASGSTFFYYAMGWYRKAPGKERDFVAAISKSGGRTYYADTVKGRFTISRDNAKNTVYLQMNSLKPEDTAVYYCAAYYEYRRDYWGQCTQVTVSS,high polyreactivity
20,QVQLVESGGGLVQAGGSLRLSCAASGSTFFYYTMGWYRQAPGKERELVAAISRGGRTNYADSVKGRFTISRDNAKNTVYLLMNSLKREDTAVFYCIADAWSFRQYWGRYDYWGQGTQVTVSS,high polyreactivity
